Laboratory results reported in the supplement of paper PMC7125110.
± gives the standard error. Variants at the floor of the assay were thinned out.

B1: glmS ribozyme (parent)
chain: AUAAAAGCGCCAGAACUACAGAAAUGUAGUUGACGAGGAGGAGGUUUAUCGAAUUUUCGGCGGAUGCCUCCAAA

What was measured:
Details in all cases: with glucosamine-6-phosphate
glucosamine-6-phosphate [1] = variants of: B1; assay: self-cleavage kobs at 40 uM GlcN6P; higher = faster cleavage; RNA array
Summary of the method: (§1)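 Over ~14 h at 37 °C, tiles were imaged as glucosamine-6-phosphate (40 μM to 10 mM) in HEPES/KCl/Mg(OAc)2 buffer flowed across sequenced MiSeq chips. The chips carried barcoded ribozyme variants transcribed in situ by E. coli RNA polymerase and tracked with a hybridised Cy3 probe. After normalisation to baseline and to non-cleaving reference variants, one- or two-exponential decay fits of per-tile medians gave kobs. kcat and KM followed from weighted Michaelis–Menten fits across concentrations.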

glucosamine-6-phosphate [2] = variants of: B1; assay: self-cleavage kobs at 640 uM GlcN6P; higher = faster cleavage; RNA array
Summary of the method: as §1

glucosamine-6-phosphate [3] = variants of: B1; assay: self-cleavage kobs at 10000 uM GlcN6P; higher = faster cleavage; RNA array
Summary of the method: as §1

glucosamine-6-phosphate [4] = variants of: B1; assay: self-cleavage kobs at 2500 uM GlcN6P; higher = faster cleavage; RNA array
Summary of the method: as §1

glucosamine-6-phosphate [5] = variants of: B1; assay: self-cleavage kobs at 160 uM GlcN6P; higher = faster cleavage; RNA array
Summary of the method: as §1

Variant	self-cleavage kobs at 40 uM GlcN6P (glucosamine-6-phosphate [1])	self-cleavage kobs at 640 uM GlcN6P (glucosamine-6-phosphate [2])	self-cleavage kobs at 10000 uM GlcN6P (glucosamine-6-phosphate [3])	self-cleavage kobs at 2500 uM GlcN6P (glucosamine-6-phosphate [4])	self-cleavage kobs at 160 uM GlcN6P (glucosamine-6-phosphate [5])
U45G G60C	< 1e-05 s⁻¹	< 1e-05 s⁻¹	–	–	–
U55C G63U U69A	< 1e-05 s⁻¹	< 1e-05 s⁻¹	< 1e-05 s⁻¹	–	–
U30C G35A C67U	< 1e-05 s⁻¹	–	–	–	–
A14C A64G U65A C70A C71G	< 1e-05 s⁻¹	–	< 1e-05 s⁻¹	–	–
A14G U69C	0.00132 ± 0.00036 s⁻¹	–	0.00782 ± 0.0029 s⁻¹	–	–
U65A U69C	5.26e-05 ± 1.5e-05 s⁻¹	0.00019 ± 8.3e-05 s⁻¹	0.000843 ± 0.00023 s⁻¹	0.00117 ± 0.00044 s⁻¹	–
G13A G44U C50G C71U	< 1e-05 s⁻¹	< 1e-05 s⁻¹	–	–	–
A15G U30C C67A	0.000291 ± 6.8e-05 s⁻¹	0.00103 ± 0.00029 s⁻¹	0.0108 ± 0.0031 s⁻¹	0.00517 ± 0.0012 s⁻¹	0.00105 ± 0.00028 s⁻¹
A39C C50U A64G	< 1e-05 s⁻¹	–	–	–	–
G9C G41U C50A	< 1e-05 s⁻¹	–	–	–	–
C11A G13C A53U C58G A64U U69A	7.02e-05 ± 2.7e-05 s⁻¹	–	–	–	–
C11U A48G C68A	< 1e-05 s⁻¹	–	–	–	–
A36U U46G A53U	< 1e-05 s⁻¹	< 1e-05 s⁻¹	< 1e-05 s⁻¹	< 1e-05 s⁻¹	–
G35A U54A	< 1e-05 s⁻¹	< 1e-05 s⁻¹	–	< 1e-05 s⁻¹	–
G9C A39G	< 1e-05 s⁻¹	–	< 1e-05 s⁻¹	< 1e-05 s⁻¹	–
A33G C34G G35U G38U	< 1e-05 s⁻¹	–	< 1e-05 s⁻¹	–	–
A36U G44U	< 1e-05 s⁻¹	< 1e-05 s⁻¹	< 1e-05 s⁻¹	< 1e-05 s⁻¹	< 1e-05 s⁻¹
U49C G60A	< 1e-05 s⁻¹	–	< 1e-05 s⁻¹	–	< 1e-05 s⁻¹
C10A A39U U69C	< 1e-05 s⁻¹	–	< 1e-05 s⁻¹	–	–
C10U A14C C61U	< 1e-05 s⁻¹	–	< 1e-05 s⁻¹	–	–
A6U G44C	< 1e-05 s⁻¹	< 1e-05 s⁻¹	–	< 1e-05 s⁻¹	< 1e-05 s⁻¹
U30C C61U	< 1e-05 s⁻¹	–	–	–	< 1e-05 s⁻¹
C8G C68U	< 1e-05 s⁻¹	–	–	–	–
G63A G66U	< 1e-05 s⁻¹	< 1e-05 s⁻¹	< 1e-05 s⁻¹	< 1e-05 s⁻¹	–
C34G G41U U49G A52C A64C	< 1e-05 s⁻¹	–	–	–	–

Variant	self-cleavage kobs at 40 uM GlcN6P (glucosamine-6-phosphate [1])	self-cleavage kobs at 640 uM GlcN6P (glucosamine-6-phosphate [2])	self-cleavage kobs at 10000 uM GlcN6P (glucosamine-6-phosphate [3])	self-cleavage kobs at 2500 uM GlcN6P (glucosamine-6-phosphate [4])	self-cleavage kobs at 160 uM GlcN6P (glucosamine-6-phosphate [5])
A6U G29U C50U G66C	< 1e-05 s⁻¹	–	< 1e-05 s⁻¹	–	–
A6G G44U C61U	< 1e-05 s⁻¹	< 1e-05 s⁻¹	< 1e-05 s⁻¹	< 1e-05 s⁻¹	< 1e-05 s⁻¹
C8A G32A G37A	< 1e-05 s⁻¹	–	–	–	–
G7A A42G C70U	< 1e-05 s⁻¹	–	–	< 1e-05 s⁻¹	–
G7U U45C U56A	< 1e-05 s⁻¹	< 1e-05 s⁻¹	–	< 1e-05 s⁻¹	–
A39C G41U	< 1e-05 s⁻¹	–	–	–	< 1e-05 s⁻¹
A12C U56A A64C	< 1e-05 s⁻¹	9.73e-05 ± 3.4e-05 s⁻¹	–	–	–
U55C C68G	< 1e-05 s⁻¹	–	< 1e-05 s⁻¹	–	–
C34A U47A	< 1e-05 s⁻¹	–	–	–	–
G32C U57C	< 1e-05 s⁻¹	< 1e-05 s⁻¹	–	–	< 1e-05 s⁻¹
A15G U31A A36U	< 1e-05 s⁻¹	–	–	–	–
C10U A64C	< 1e-05 s⁻¹	< 1e-05 s⁻¹	–	< 1e-05 s⁻¹	–
C10U G37U	< 1e-05 s⁻¹	< 1e-05 s⁻¹	< 1e-05 s⁻¹	–	–
A36G U47C	< 1e-05 s⁻¹	–	< 1e-05 s⁻¹	–	–
G38U G51U U54G G66A	< 1e-05 s⁻¹	–	–	–	–
U46G A53U C70G	5.33e-05 ± 2.4e-05 s⁻¹	–	0.000165 ± 4e-05 s⁻¹	0.000254 ± 7.7e-05 s⁻¹	–
G29U G38U U55G	< 1e-05 s⁻¹	–	< 1e-05 s⁻¹	< 1e-05 s⁻¹	–
A6C G13U C34G G60C	< 1e-05 s⁻¹	–	–	–	–
C11A G37U A42U C68U	< 1e-05 s⁻¹	< 1e-05 s⁻¹	–	–	–
A12U C16A G29A A53U	9.7e-05 ± 2e-05 s⁻¹	–	–	–	–
A14G G41U U45A C70U	0.000293 ± 5.4e-05 s⁻¹	0.000588 ± 0.00015 s⁻¹	0.000993 ± 0.00019 s⁻¹	0.00191 ± 0.00054 s⁻¹	0.00043 ± 0.00013 s⁻¹
A52U G59U	< 1e-05 s⁻¹	< 1e-05 s⁻¹	< 1e-05 s⁻¹	–	< 1e-05 s⁻¹
G41U U46A U49C C71G	< 1e-05 s⁻¹	–	–	–	–
G7C A15C	< 1e-05 s⁻¹	< 1e-05 s⁻¹	< 1e-05 s⁻¹	< 1e-05 s⁻¹	< 1e-05 s⁻¹
C34A U54C	< 1e-05 s⁻¹	< 1e-05 s⁻¹	< 1e-05 s⁻¹	–	< 1e-05 s⁻¹

Variant	self-cleavage kobs at 40 uM GlcN6P (glucosamine-6-phosphate [1])	self-cleavage kobs at 640 uM GlcN6P (glucosamine-6-phosphate [2])	self-cleavage kobs at 10000 uM GlcN6P (glucosamine-6-phosphate [3])	self-cleavage kobs at 2500 uM GlcN6P (glucosamine-6-phosphate [4])	self-cleavage kobs at 160 uM GlcN6P (glucosamine-6-phosphate [5])
C16A U31A U47C G63A	< 1e-05 s⁻¹	–	–	–	–
G7A U46C	< 1e-05 s⁻¹	< 1e-05 s⁻¹	< 1e-05 s⁻¹	–	–
U30G G44C	< 1e-05 s⁻¹	–	3.93e-05 ± 1.1e-05 s⁻¹	–	< 1e-05 s⁻¹
G7C C16G C61A	< 1e-05 s⁻¹	< 1e-05 s⁻¹	< 1e-05 s⁻¹	< 1e-05 s⁻¹	–
G59C C61U G66U	< 1e-05 s⁻¹	–	< 1e-05 s⁻¹	–	–
A15C G59U	< 1e-05 s⁻¹	< 1e-05 s⁻¹	–	–	< 1e-05 s⁻¹
U55A C71A	0.000472 ± 6.9e-05 s⁻¹	0.00299 ± 0.00056 s⁻¹	0.0132 ± 0.0032 s⁻¹	–	0.000925 ± 0.00023 s⁻¹
G44A U46C A53U C61U	< 1e-05 s⁻¹	–	–	–	–
A6G G43C	< 1e-05 s⁻¹	< 1e-05 s⁻¹	< 1e-05 s⁻¹	< 1e-05 s⁻¹	< 1e-05 s⁻¹
C16U U45A	0.00211 ± 0.00039 s⁻¹	0.0159 ± 0.003 s⁻¹	0.0689 ± 0.015 s⁻¹	0.0183 ± 0.0057 s⁻¹	–
G7C A39C	< 1e-05 s⁻¹	–	< 1e-05 s⁻¹	–	< 1e-05 s⁻¹
A53C G59A	< 1e-05 s⁻¹	< 1e-05 s⁻¹	–	–	–
A33G G35A U47A C67U C70G	5.2e-05 ± 2.3e-05 s⁻¹	–	6.3e-05 ± 1.7e-05 s⁻¹	–	–
G44C A64G C70U	< 1e-05 s⁻¹	< 1e-05 s⁻¹	< 1e-05 s⁻¹	< 1e-05 s⁻¹	–
G37A A48G	< 1e-05 s⁻¹	–	–	–	< 1e-05 s⁻¹
G32A U54A C61G	< 1e-05 s⁻¹	< 1e-05 s⁻¹	< 1e-05 s⁻¹	–	–
G40U G44A U57C C61G G66U	< 1e-05 s⁻¹	–	–	< 1e-05 s⁻¹	–
G41U G43C	< 1e-05 s⁻¹	< 1e-05 s⁻¹	–	< 1e-05 s⁻¹	< 1e-05 s⁻¹
A6C G29A G40A G44U	< 1e-05 s⁻¹	–	< 1e-05 s⁻¹	–	–
U49G C58G	< 1e-05 s⁻¹	–	–	–	–
C16A A42C G66U	< 1e-05 s⁻¹	–	< 1e-05 s⁻¹	–	–
A15G C50A	< 1e-05 s⁻¹	–	3.83e-05 ± 1.4e-05 s⁻¹	–	–
A15U C16A G60U	< 1e-05 s⁻¹	–	< 1e-05 s⁻¹	–	–
G41C U57A	< 1e-05 s⁻¹	–	< 1e-05 s⁻¹	< 1e-05 s⁻¹	< 1e-05 s⁻¹
U56A C61U	< 1e-05 s⁻¹	–	–	–	< 1e-05 s⁻¹

Variant	self-cleavage kobs at 40 uM GlcN6P (glucosamine-6-phosphate [1])	self-cleavage kobs at 640 uM GlcN6P (glucosamine-6-phosphate [2])	self-cleavage kobs at 10000 uM GlcN6P (glucosamine-6-phosphate [3])	self-cleavage kobs at 2500 uM GlcN6P (glucosamine-6-phosphate [4])	self-cleavage kobs at 160 uM GlcN6P (glucosamine-6-phosphate [5])
A33U G40A A42C	< 1e-05 s⁻¹	< 1e-05 s⁻¹	< 1e-05 s⁻¹	< 1e-05 s⁻¹	< 1e-05 s⁻¹
G37C U46G	< 1e-05 s⁻¹	< 1e-05 s⁻¹	–	–	< 1e-05 s⁻¹
G35A G40C A48G G62U G63C	< 1e-05 s⁻¹	–	–	–	–
A36G C61A G62U C67A	< 1e-05 s⁻¹	–	–	–	–
A14U G37A A39C G59C	< 1e-05 s⁻¹	–	–	–	–
C19A C50G	5.77e-05 ± 2.2e-05 s⁻¹	0.000594 ± 0.00013 s⁻¹	4.18e-05 ± 1.5e-05 s⁻¹	6.17e-05 ± 2.2e-05 s⁻¹	0.000364 ± 9.5e-05 s⁻¹
G13U A36U A48G U55C C68G C70U	0.0002 ± 6.4e-05 s⁻¹	–	0.000527 ± 0.00022 s⁻¹	–	–
U45A A52U	< 1e-05 s⁻¹	0.000476 ± 0.00013 s⁻¹	0.001 ± 0.00019 s⁻¹	–	–
A6G A12U G66A	< 1e-05 s⁻¹	–	7.44e-05 ± 2.2e-05 s⁻¹	0.000132 ± 3.5e-05 s⁻¹	–
A48C C61U C67G	< 1e-05 s⁻¹	< 1e-05 s⁻¹	< 1e-05 s⁻¹	–	–
A36C G63U	< 1e-05 s⁻¹	< 1e-05 s⁻¹	–	–	–
G13U G41A U49G U55G	< 1e-05 s⁻¹	–	–	< 1e-05 s⁻¹	–
A6C G40A	< 1e-05 s⁻¹	–	2.46e-05 ± 9.8e-06 s⁻¹	–	< 1e-05 s⁻¹
G13U G38U A52G C68G U69G	0.000165 ± 5.9e-05 s⁻¹	–	8.14e-05 ± 2.1e-05 s⁻¹	–	–
A6C A42G	< 1e-05 s⁻¹	–	9.6e-05 ± 1.1e-05 s⁻¹	6.82e-05 ± 1.8e-05 s⁻¹	< 1e-05 s⁻¹
A12G C16G G43C	< 1e-05 s⁻¹	–	–	–	–
C8G U31C A33U U46C C67A	< 1e-05 s⁻¹	–	< 1e-05 s⁻¹	–	–
C8U G59C	< 1e-05 s⁻¹	< 1e-05 s⁻¹	< 1e-05 s⁻¹	< 1e-05 s⁻¹	–
G37A G38A G41A	< 1e-05 s⁻¹	–	< 1e-05 s⁻¹	–	–
C34G A36U U46A A52G C71A	< 1e-05 s⁻¹	< 1e-05 s⁻¹	< 1e-05 s⁻¹	–	< 1e-05 s⁻¹
A15G U30A G41A G51U G62A	< 1e-05 s⁻¹	–	–	< 1e-05 s⁻¹	–
U54C G63U A64C	< 1e-05 s⁻¹	–	< 1e-05 s⁻¹	–	–
A14U C34U	< 1e-05 s⁻¹	< 1e-05 s⁻¹	< 1e-05 s⁻¹	< 1e-05 s⁻¹	< 1e-05 s⁻¹
